In PMC3688876:

Target: Apo2L/TRAIL-R1/DR4 (human (endogenous in MCF-7)) (UniProt O00220)
UniProt O00220, sequence (O00220 24-468): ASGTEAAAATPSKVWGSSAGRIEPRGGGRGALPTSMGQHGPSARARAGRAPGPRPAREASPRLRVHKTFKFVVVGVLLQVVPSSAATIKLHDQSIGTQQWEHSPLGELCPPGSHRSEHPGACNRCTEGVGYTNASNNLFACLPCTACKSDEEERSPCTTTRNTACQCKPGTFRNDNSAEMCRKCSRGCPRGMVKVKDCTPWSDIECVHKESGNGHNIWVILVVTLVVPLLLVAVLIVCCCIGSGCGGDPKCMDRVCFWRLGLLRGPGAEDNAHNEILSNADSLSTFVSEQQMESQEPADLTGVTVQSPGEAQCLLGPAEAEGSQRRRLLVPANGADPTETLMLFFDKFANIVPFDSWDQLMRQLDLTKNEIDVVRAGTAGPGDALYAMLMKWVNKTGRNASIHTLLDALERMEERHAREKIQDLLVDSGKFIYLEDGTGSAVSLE

Work on “Human recombinant Apo2L/TRAIL (from UniProt P50591 1-281) (ligand)” yielded a cellular apoptosis (viability by crystal violet, OD570) of MCF-7 PTHrP overexpressing cells pre-incubated with antagonistic anti-TRAIL-R1 antibody (10 µg/ml), then treated with 100 ng/ml Apo2L/TRAIL of 50%.
